The data set addresses GST-CjWRKY1 WT (Coptis japonica, UniProt A0ZT25 1-185). Nature of the data set: EMSA; 0.05 ug/ul poly(dI-dC), 1 mM MgCl2; EMSA: 20 fmol biotin probe, 3 ug protein, 1x LightShift binding buffer, 1 mM MgCl2, 0.5 mM EDTA, 0.05 ug/ul poly(dI-dC), 20 min at 4 C, 5% polyacrylamide gel; pH and salt not given. The following applies: protein: recombinant; tags: N-terminal GST (pGEX-6P-1); label: biotin; blunt.

GST-CjWRKY1 WT, sequence (A0ZT25 entry or part of it): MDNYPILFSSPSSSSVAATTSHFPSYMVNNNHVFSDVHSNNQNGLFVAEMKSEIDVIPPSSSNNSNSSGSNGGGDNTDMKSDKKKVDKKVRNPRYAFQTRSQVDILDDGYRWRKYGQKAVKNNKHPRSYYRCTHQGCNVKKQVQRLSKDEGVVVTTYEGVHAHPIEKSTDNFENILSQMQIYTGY

B1: 3x W-box probe (CYP80B2 promoter) (dsDNA)
DNA 1: CTGCTGACTAGCTGACTAGCTGACTAGATGG
DNA 2: CCATCTAGTCAGCTAGTCAGCTAGTCAGCAG
With B1, the binding result is “binds”.

These data come from article PMC4995487, “Tyrosine phosphorylation and protein degradation control the transcriptional activity of WRKY involved in benzylisoquinoline alkaloid biosynthesis”.
